Reference: patent US20190382490A1

Columns and labels:
Assay in all cases: Fc receptor binding, method not stated
CD64 (FcγRIa) (human) = CD64 (FcγRIa) (human) (UniProt P12314)
[1] = molecular target: CD32-H131 (FcγRIIa) (human) (UniProt P12318)
[2] = molecular target: CD32-R131 (FcγRIIa) (human) (UniProt P12318)
[3] = molecular target: CD16-V158 (FcγRIIIa) (human) (UniProt P08637)
UniProt P08637, sequence (P08637 17-208 F176V limits assumed): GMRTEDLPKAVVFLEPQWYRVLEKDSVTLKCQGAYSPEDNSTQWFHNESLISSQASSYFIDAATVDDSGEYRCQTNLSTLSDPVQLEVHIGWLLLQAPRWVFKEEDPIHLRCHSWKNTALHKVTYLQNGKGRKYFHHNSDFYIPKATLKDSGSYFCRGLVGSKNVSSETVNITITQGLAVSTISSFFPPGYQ

UniProt P12314, sequence (P12314 16-288 limits assumed): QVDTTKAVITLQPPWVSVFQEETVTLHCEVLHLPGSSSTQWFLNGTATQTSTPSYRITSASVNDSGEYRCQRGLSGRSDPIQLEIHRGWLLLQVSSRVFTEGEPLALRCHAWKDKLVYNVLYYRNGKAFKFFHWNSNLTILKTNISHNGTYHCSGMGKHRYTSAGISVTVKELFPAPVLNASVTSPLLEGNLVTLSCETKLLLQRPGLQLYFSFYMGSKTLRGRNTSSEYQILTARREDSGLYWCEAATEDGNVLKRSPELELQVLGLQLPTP

Kd (CD64 (FcγRIa) (human)): 0.2 nM | Kd [1]: 530 nM | Kd [2]: 960 nM | Kd [3]: 97 nM
Substance: IgG1f antibody (fucosylated, otherwise unmodified human IgG1f Fc region)
